# Source: the domain aggregation screens of Martell et al. (2025)
# Experiment: soluble fraction after stress (log2 fold change); higher = more stays soluble; pooled small domains, quantitative proteomics
# Details: stress: 50 degC
# Procedure, shortened: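 After stress at 50°C, the amount of each protein still soluble was measured. This was done on pooled custom libraries of small protein domains, using high-throughput quantitative proteomics. The figure given is a base-two log fold change and stands for aggregation propensity, with higher values meaning more protein stays in solution.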
row,Sequence,soluble fraction (log2)
1,HMFETLVLALAQAWPAERGPVEALQFEGGRLSLQRSGFADEQVEALRQRLSSEGWTLQTEQGRLILNKAG,-0.884
2,HMRLPQEVWEKIRAAYEAHGLSFSELAEMYGVNKSNISRRAKAEGWNQAETQRLITATVENE,0.267
3,HMGKEDLTAAIKKMTLNDKLDIHKIVANFQTNDSEEVITAVKWLMENNYLLKIKNNYTWNTKEK,-0.263
4,HMSSAYLTVRGIDIDVIYKDIKNLHIAVYPPFGRVRVAAPSHLDDDQVRLAVIQRLTWIKRQRERLRST,-1.41
5,HMRVKLVKKSILASGGENIRVDKFLSNHILTMTRTQIKKLFLDGLVQVNKSFVKPGSILKGNEIITFSIPE,-1.8
6,HMGLGQRIKARREALGLSQARLGEAVGVSLQAVSNWERDEYLPDTARLPLIARALGLTPGQLME,0.0172
7,HMKMSLKENLLELLQKSSGEFLSGERAAETLGVSRTAVWKAVTSLKNEGYNIESVTNRGYRFS,-0.0145
8,HMVAVSQEEATKMALERVSGASAQDIRIQLEFDDGIQKYEGDIIYNGREYEFEIDANTGTFLEWSEERA,-0.489
9,HMLTYPEHVRLRMIELRKTRSLSQSEFGTYLGLSYQTISSLELGRHEWSLAHIQTALLRFELPPNYF,-4.92
10,HMQQLIEFSVTKGHPWINKKIMDLNLPENQLILTIQREGHVVSAEGKTIILENDRITISTDDR,-0.0156
11,HMSEKLTLEAANEAAGMRIDKWLAMQLPELSRSRIEALISGGGVVVNGKNPSKSLKLKGGEQIELEIPE,0.0725
12,HMSARKVTVALHTRDHADRLRRLLKHEGVSADLVAARLSHKLTDHPIEVRVNEDDIPAVLRIIENIEIF,-1.31
13,HMGVSVNVQPAILDWAMQKAQMGNAGSSVIEMIAKWISGEKAPTFNQIEDVSKKISIPFGFFFLKEPPIE,-0.951
14,HMFLPETEVKSFFHRGITKISPSLAMDIADFFRMPFAVILKRALALEVISDEQYRSFMTVKPEHV,-0.014
15,HMTTQIPEEVQKRVNQFYEALDEEDYGEAKQILEELEKATAPDHPTLIQMRTRYEFDTMELR,0.186
16,HMVSQELIMLGNRIREYRKERGFSQEILAEKSGVSTNTISRIEGGQMAMSVGILQRIVKALGVDANVMLG,-0.332
17,HMTDFNTFSDAIIAAVGSRASGLKVVDNAVSVMVDVSGLNEDQRVEIEADVRAAAEHAGAQSVRIMLT,-0.438
18,HMPFDWSAFDWKGWADEALAIIKTANQDQMNKWTEDNEKIIVQAETAAPDIYKTVGDEYDKKMESFN,0.11
19,HMQRADYLILYYIKMQAEQHPDSKVYLADLAAVMGLKVTELSKAVEKLQDNGFVAWKTDREAGRTYVELS,-1.31
20,HMSLHSITIPQEFIGAVIGPGGKVIQEIQKQTGTTITITEKDNKGYVDIFGEDKGALDSALARIKEIVAIP,0.182
21,HMEEPEELYRVKILIYNLLVRNGPGILYTRLRRADYPGEYGIYEEKNGYGKISATLSEWISLNTEYVQRLD,-2
22,HMYPIYDYISNMYLGKHLNAGMSLEEARGIMDEMLEKLLFDVPEEYHIDRDHFYEYLKKYYTERFSA,-1.81
23,HMITKAIELAEEAEKETVWLGVWEHNHPAQKFYQSLGFVKTDEHDFYMGNERHTDYTMTKQLK,-0.138
24,HMRSRHYRFSTPFLDRLIAEIDWNSDNALSIFNQKLVHFDFLKYFSAIQPGSIVEIENLNFIWTGKRLEAH,-2.55
25,HMITAEQENILFEKASDDISNNIINKGIWTKAYSQAGGDESKQKAIYIDLLVNYYKMLIKAGEEFEDI,-1.39
26,HMKQQFTREQIIELMYKAYKKHKKKLNRVEIKKEKALPSYVTIGRYLNETSIKKIWEIVLSEKE,-0.43

row,Sequence,soluble fraction (log2)
1,HMKIPIIYQPLKNAKRIKIYIPYELKELRTIFKKINTTFWHPNQKLWSIIYTQENVALIKNLFGKNYKIVN,-0.547
2,HMDPEEETLKNMQRMLQDSGPLKKTEFSLLAKSLGIAEKKARKLIDRGRGRFWTVESGEQKNTQLVTPIQ,-0.0247
3,HMVRSEDLIGLQGRITLATDVETRGFVELSVKGSLLRRPALSLKGPLAKNTAVVVTASNDHTLEVEAL,-0.573
4,HMNVYAGTMINVVGLQVEDAASRLRGLFYSVKIVEEESQEPDGKVLRQNIAEGTKDLEAWTLVELTVSKYV,-0.872
5,HMIALLRLGTAPDIKAQAPLATILARHNGEMSAKDLWQRFGGEIDTFYAQLKTEVAHGWILEPT,-0.617
6,HMHSEISGGSKDPFRFMPHLGVEDIHAETDRLSGSGVEFIREPDQESWGGWVATFKDPDGNILQLLQL,0.25
7,HMYRSGGYTGAGKDDEEAGVVHRNEFVNTADAVRNPHVKRFLDVFNVAQKDGTIRMLNTSQILERARLDA,0.123
8,HMKNHIEERRKARGMTQQQLASELGVSRQTIISLENGKYNPSILLAHSIARLFGERIEDIFILR,-1.6
9,HMSDPDPAEQALLRQFMTRYAAYRRRGQHPAGAFRTASLEVFGQEPSGDLRDVIVDLESGLV,-0.137
10,HMGKVTILSNPVKDALVIMGLHNAETIDVRLFDNTGRLVMQGSQSRMDISSLSPGLYILQVNGKILKVIK,-2.21
11,HMELGRQDSAQLGRWAAGILAKNGKKITGRTMEFFLSRTGDDMENISSELEKLISYTLGREVITEEDIEAV,-0.351
12,HMDTNEPFAQLQLRFTDPIQYDYEVIRPVVLFSQSVTDRSDETEMPRTTVREKARQFVTEGMLGLVDK,-0.00748
13,HMGSYANAWQLAEHAAKDMLGEVIYLLDGKEVHAGILETMSAESIKTASAENVDGKVVIRLVSK,-0.0617
14,HMYPATGTVVTAGGHLNMRSEPDRSGAILARIPNGTALTLTGKNGDWYAATYAGRSGYVSAQYISLS,-0.0468
15,HMPDPHSEARNIVLNQLNFMPRSRKELETALAKRNIEADVAKIVLDRFEEIGMVDDAAYAEL,0.159
16,HMEPVQFIQFKIPDGHPWSGQLLREVRLPPGTLVVLLKHDGKNIIPNGETPLLAGDSVILSAASPT,-0.197
17,HMDVLDVADNVNDDMSFADAFAAARSEVGAGGIFYWHGKAYGTYYENEWAGMSEEDKADYWDAVARTTS,-0.18
18,HMGFKLQRYTTFVVERLKKYQDTPAAQMHDLLKEHYPDFPAVSPKTVYNYVMKIRQEHGLPAV,-3.63
19,HMSQLYINATDDGWVIGNLPADAREVLLTTLGGQVVARYHVTAPSLRVKAPRKGVYIVSVETA,-1.12
20,HMEKTLAERVNDILAEIKMTKQELAMQLNISRSAVSQYLNGKYSSNPEAIEARLRDFVSSYDRG,-0.0754
21,HMIGRRLKVARASAGLSLRELAARMDGVVTPQAIGKYERNEDMPGSRALMALASALGVSEGYLLSD,-0.831
22,HMDSKPNDLLFVYVSQLIRSLTLNSSKKDSELADELEVSISQIRIWLKKLINEQLIVKESKPVKYRWKG,-2.95
23,HMREPQMVTVNGDKVTHGHAYRSNVNPEDWYFTARINGQQLKPQKMEPADVAAYDKKEIGVPELMQR,-0.0941
24,HMKIDLTPQEEKIYSVLETELTLDEIIMKTSIKAGEALAILMDLELKKLVASVAGGKYRRKA,0.0271
25,HMYSYNKEEVGKRIKSIRQQKGLTQESFGELFGASKGNVATWEKGISLPNASRLREIADLVSITVEELLYG,-0.346
26,HMGEQVAVPDVTKKSVREVNNILTSAGLRLQIEGSGISVRQDPPADTMVAPDTVVTVSFEPP,0.168

row,Sequence,soluble fraction (log2)
1,HMSWNIHEAVEYYKGQDAPQNQFALVELLKEVQEHNGGVLTDIAVEEIAALLNTKVTFLNAVIKRYPSLK,-0.287
2,HMAVANEAIANINMKEVKQAIHNLPEIFKNPFLLYFDGYKYHEIAEMLDEPLGTIKSRIHFARKLLKSHI,-0.674
3,HMDTPMQEAVLQRLRDKVAQAAAGSKLPTVRQLIADYGVGQHVIQAALEKLRTEGLITSHVGKGTFVG,0.447
4,HMYESAMSDLHARIMSSDDPHGEIYKMLTQSGPEAKYIQDMYNETSIDRGLHPDDDFEDIIDAMVAELDD,-0.479
5,HMNKPTSMYKLRLLLKHYHAGASKRWMADVLDISRSTLNVYLARIESLNLAFEEWEALSDLEVSRLLINP,-3.05
6,HMTNVNSLIGKKAIVIQDIDNLKSTGQVKIGGEIWSAQSESNDIISKDTEVEIVKIDGVKLIVRLVPV,0.1
7,HMQIKEVDYGTFISMTEDGEIGRVEIQQQENTILFTDEDETAVYKTAMVEDDQLTQRLYDAGISFYGEE,-0.0136
8,HMATKEQIKRIYGLGAGLGIVGKDKDDMLHELIFSITGKDSVKQLDDSEFKAVQAELINRMKLA,0.132
9,HMKSIPKIKWNSTLENIKNFEYQDNFFESKEMYDLLVSFYKYGFVIIKNIPTNNNFIVKFANSIGS,-0.021
10,HMYNNGYVNSDRVNFRKGASTNSDIYKVLDKNTSVTILDYEGDWSKVKINDTVGYVYTKYITAG,0.134
11,HMSDLPLLEHARQNLSDDEFRILELTTIYGYRRVEVAKMLGEPISTINWKYNKLIKKVKTFYGEVYN,-1.02
12,HMDGLTEQQADDILAFISIKGTNAEVLAALENYAGRNETFDTGLSELKVVASNLAAFGMPEENFVVDL,0.0102
13,HMPVYEEEVPAALDGQRLDRVVAMVTGLSRSEVGALLAAGAVTVDGTTPAKGSVRLAAGSIVSVTVS,-0.145
14,HMGQTDTIIKTTTDLYYEMSTMSDDDKLVVAQTLRDVWMAVGRWSGKLSKKQREKVAEVKRVLGE,-0.833
15,HMSTQVPDVKERSQEEARSILESAGFKVTPAVKTEDSADIAKDMVTKTDPAAGQSVPKGTTITIYVSS,0.149
16,HMVMTTVPEVLGMDIRTAASMLTGKNLKYDYDLVESDKPKDEVIEQDQAKGTEVPEGTVVKLKVSKGPA,0.0583
17,HMAPRQDIAYYTVKPGDTVLAIAEKFGLQPETLMWSNSIIEQNPDRLSIGDELRILPVDGVLHVVK,0.0612
18,HMEVGDTYLGKVTRVSSFGAFIEVLPGKEGLMRQNDAGEGGMPEVGDEVMVRVMEVDHLGRINLSGKLDD,-0.0268
19,HMLNERQKKIIKILKDNKNWMTGKELSEFLNVSDRTIRSDIEYINRYNNALIESNVKNGYHLNFE,0.12
20,HMEATVGSRVRLARIGLTLTQKQLAQAVGVSANHLAMVERGSKHASEDLLQRIATATHTTYEWLMGTSEHQ,-0.845
21,HMSRPLISNMLRLLNLPPTVQRKVAAGVISAGHARALLGLNDEKEIEKLANRIVAEGLSVRATEEIVAIA,-0.937
22,HMVRDGDTFVVPKMDRFARNVEDTLHLVRELTERGVIFQMGHTVYDPHDPWSKLFLTFLAAIAEA,-0.00927
23,HMKLSALRDKIKEHLLRQIQNGELQVGKTINLAALSRVTGISVTPIREALTQLEQAQVIQAVPNRGFVVA,0.00526
24,HMLKGTVKWFNESKGFGFIEQEEGKDVFVHYSAITGSGFKTLNEGDKVQFEIVDGPKGPAAANVSK,-0.0666
